Measurements published in publication PMC9320952 (Molecular Microbiology, 2022).

Target: the molecule itself
Assay: negative staining electron microscopy

B1: SepF (purified, freed from MBP-SepF by factor Xa) (natural protein, B. subtilis, UniProt O31728 1-151, looked up)
chain: MSMKNKLKNFFSMEDEEYEYEYIETERESHEEHEQKEKPAYNGNKPAGKQNVVSLQSVQKSSKVVLSEPRVYAEAQEIADHLKNRRAVVVNLQRIQHDQAKRIVDFLSGTVYAIGGDIQRIGSDIFLCTPDNVDVSGTISELISEDEHQRW
binding result: binds
